Experimental data from PMC9696088, “Alicyclobacillus mali FL18 as a Novel Source of Glycosyl Hydrolases: Characterization of a New Thermophilic β-Xylosidase Tolerant to Monosaccharides” (International Journal of Molecular Sciences, 2022).

Key:
[1] = target: AmβXyl, β-xylosidase (GH3) from Alicyclobacillus mali FL18 (Alicyclobacillus mali FL18); test: SEC-MALS; size-exclusion chromatography (S200 16/60) with triple-angle light scattering and QELS; 500 μg loaded; 100 mM NaCl, 25 mM sodium phosphate pH 7.5, 1 mM DTT; 0.5 mL/min
[2] = substrate: O=[N+]([O-])c1ccc(O[C@@H]2O[C@@H](CO)[C@H](O)[C@H]2O)cc1; test: pNP release, A405 nm, Michaelis-Menten fit (GraphPad Prism); format: biochemical, Alicyclobacillus mali (ex Roth et al. 2021); details: 50 mM sodium citrate pH 5.6, 1 mM DTT, 80 °C, substrate 0.1-8.0 mM
Excerpt: (§1) pNP release, A405 nm, Michaelis-Menten fit (GraphPad Prism) on AmβXyl

[3] = substrate: O=[N+]([O-])c1ccc(O[C@@H]2OC[C@@H](O)[C@H](O)[C@H]2O)cc1; test: as above; format: biochemical, Alicyclobacillus mali (ex Roth et al. 2021); details: 50 mM sodium citrate pH 5.6, 1 mM DTT, 80 °C, substrate 0.1-8.0 mM
Excerpt: as §1

Molecule | stoichiometry N [1] | Km [2] | kcat [2] | kcat/Km [2] | Km [3] | kcat [3] | kcat/Km [3]
AmβXyl, β-xylosidase (GH3) from Alicyclobacillus mali FL18 (enzyme) | 2 | – | – | – | – | – | –
AmβXyl (Alicyclobacillus mali (ex Roth et al. 2021)) (protein, synthetic codon-optimised gene in pET-30a(+) NcoI/HindIII, N-terminal His-tag; E. coli BL21 (DE3) RIL; ~89 kDa on SDS-PAGE, dimer ~177 kDa) MYLDPAQSVDARVDALLADMTLEEKVAQLTSIWAFEILDDLRFSAEKAAAVLGQGIGQVTRIGGATNLDPPDVARLANQIQRYLRDHTRLGIPALIHEESCSGYMAKGATCFPQTIGIASTWDVDLAQRIGAIIRDQMRAVGARQALAPLLDVARDPRWGRVEETFGEDPYLVAQMGIAYVRGLQGEDLSQGVMATGKHFVGYGASEGGMNWAPAHIPERELREVYLFPFEAAVREAGLGAIMPGYHELDGVPCHDNPGLLRETLRGRWGFQGLVVSDYFAVNQLFEYHQVARDKAEAAALAVRAGVDVELPTRDVYGKPLIEAVARGLVSVAEIDELVRRVLTWKFRLGLFDHPFVDEGAAIAVFDNAEQRKVAREAAEKSLVLLKNDGLLPLAPRGTIAVIGPNAHTTRNLVGDYAYPCHIESLLEQSEDNVFQTPLPSGVKHVDEFIPMRTILEAIGHRVGSEAQVVYAKGCDVLEGEDADLDEAVALAAQSDVAVVVVGDRAGLTDACTTGESRDRATLSLIGRQEELVRRVLATGTKTVVVLVSGRPLAIPDIAERANAVLEAWLPGEEGAEAVAAVLFGDVNPSGKLPVTIPRSVGQVPIYYGHKPSGGRSHWKGAYVDESNLPLYPFGHGLSYTAFEYRDLTLSASELGVHGEIEVACVIENVGARAGEEVVQLYARDVAADVTRPVKVLCGFARVPLAPGEKARVRFRVSAHQFGFYNREMRYVVEPGEIEIMVGASSEDIRLRGMVRIHGAMTEIEHEKVYQSAVNVERM | – | 10.56 mM | 2400 s⁻¹ | 227000 M⁻¹ s⁻¹ | 0.52 mM | 1610 s⁻¹ | 3.09e+06 M⁻¹ s⁻¹
